In publication PMC12319226 (Frontiers in Bioinformatics, 2025) one finds Kd, koff and kon data, which are given here for 14 molecules.

By Kd is commonly meant a measure of binding affinity in units of concentration. Higher therefore signals weaker binding. In general, koff refers to a measure of how fast the partners let go of each other. A higher koff goes with fast dissociation. As a reminder, the kon is the rate constant with which the complex forms. Low readings indicate slow association, high ones fast association.

Substitutions are numbered along the chain they refer to. Where only a bound is given, the exact number is not on record here.

What all share (assay): BLI
For orientation: BLI is a label-free optical method that tracks binding on a fibre tip over time.

In test [1] the target is chimeric antibody hJAR5 (mouse variable, human constant).
The target of another test is mAb JAR5 (mouse) (mouse).
Test [2] deals with T1, factor H binding protein variant 1.1 (Neisseria meningitidis serogroup B …, UniProt Q9JXV4).
T1 construct: also called fHbp v1.1; v1.1 Control (0001)
The conditions noted are these: both partners purified.

The target of test [3] is T2, factor H binding protein variant 3.28 (Neisseria meningitidis, fHbp variant …).
T2 construct: also called fHbp v3.28; v3.28 Control (0002)
T2 chain: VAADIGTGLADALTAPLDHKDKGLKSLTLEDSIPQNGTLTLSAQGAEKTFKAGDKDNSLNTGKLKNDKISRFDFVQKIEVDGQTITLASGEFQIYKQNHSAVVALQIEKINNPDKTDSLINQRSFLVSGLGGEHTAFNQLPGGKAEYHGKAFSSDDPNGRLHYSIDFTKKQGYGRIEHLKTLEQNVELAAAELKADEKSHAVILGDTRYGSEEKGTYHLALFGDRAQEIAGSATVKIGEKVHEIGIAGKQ
To be noted: both partners purified.

The target in test [4] is T2, factor H binding protein variant 3.28. To be noted: both partners purified.
For test [5], the target named is T3, fHbp m000019 (Neisseria meningitidis, fHbp v1.1 …, point mutant).
T3 construct: also called Round 1 best mutant
T3 chain: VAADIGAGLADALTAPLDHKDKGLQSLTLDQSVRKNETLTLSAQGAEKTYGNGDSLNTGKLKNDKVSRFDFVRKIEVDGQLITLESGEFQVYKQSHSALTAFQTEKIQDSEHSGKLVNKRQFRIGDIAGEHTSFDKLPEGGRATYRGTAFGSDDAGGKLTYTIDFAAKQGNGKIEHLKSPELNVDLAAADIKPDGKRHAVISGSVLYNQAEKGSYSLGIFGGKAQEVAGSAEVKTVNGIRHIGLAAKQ
To be noted: both partners purified.

A further test deals with T4, fHbp mutant 0014 (Neisseria meningitidis, fHbp v1.1 mutant, point mutant).
T4 chain: T3 chain with T38K, T40K, S42A, V72I, K74Q, K106Q, L116M, N118A, A155P, G156N
To be noted: both partners purified.

A further test concerns the target T5, fHbp mutant 0012 (Neisseria meningitidis, fHbp v1.1 mutant, point mutant).
T5 chain: T3 chain with T38K, T40K, S42A, K106Q, L116M, N118A
To be noted: both partners purified.

In a further test the target is T6, fHbp mutant 0017 (Neisseria meningitidis, fHbp v1.1 mutant, point mutant).
T6 chain: T3 chain with K106Q, A155P, G156N
To be noted: both partners purified.

A further test has as its target T7, fHbp mutant 0018 (Neisseria meningitidis, fHbp v1.1 mutant, point mutant).
T7 chain: T3 chain with L116M, N118A, A155P, G156N
To be noted: both partners purified.

For test [6], the target named is T8, fHbp m000019 (Neisseria meningitidis, fHbp v1.1 …, point mutant).
T8 chain: T3 chain
To be noted: both partners purified.

For another test, the target named is T9, fHbp mutant 0015 (Neisseria meningitidis, fHbp v1.1 mutant, point mutant).
T9 chain: T3 chain with T38K, T40K, S42A, A155P, G156N
The conditions noted are these: both partners purified.

The next test has as its target T10, fHbp mutant 0016 (Neisseria meningitidis, fHbp v1.1 mutant, point mutant).
T10 chain: T3 chain with V72I, K74Q, E76R, V77S, A155P, G156N
The conditions noted are these: both partners purified.

Another test concerns the target T11, fHbp m002416 (Neisseria meningitidis, fHbp v3.28/v1.1 …, point mutant).
T11 construct: also called fHbp 2,416; Round 2 best mutant
T11 chain: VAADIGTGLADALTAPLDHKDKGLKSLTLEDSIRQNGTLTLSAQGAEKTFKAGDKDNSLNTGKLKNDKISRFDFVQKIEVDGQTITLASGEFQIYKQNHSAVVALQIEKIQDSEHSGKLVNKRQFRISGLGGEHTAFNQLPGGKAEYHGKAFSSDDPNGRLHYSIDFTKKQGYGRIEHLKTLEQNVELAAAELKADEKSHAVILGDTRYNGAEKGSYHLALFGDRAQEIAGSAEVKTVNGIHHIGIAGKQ
To be noted: both partners purified.

Consider fHbp CC1 (natural protein), for which, in [1], the dissociation constant Kd came out at 3.86 nM, the off-rate (koff) was found to be 0.00268 s⁻¹ and the kon was determined as 693000 M⁻¹ s⁻¹.
The like results for fHbp CC8 (natural protein) were, in that order, 3.58 nM, 0.002 s⁻¹ and 558000 M⁻¹ s⁻¹.
In [1], “fHbp m000006 (from UniProt E6MV22 20-274) (natural protein)” yielded a dissociation constant Kd of 0.922 nM, a koff of 0.000499 s⁻¹ and a kon of 541000 M⁻¹ s⁻¹. In addition, in the test with mAb JAR5 (mouse) (mouse), the Kd was under 0.001 nM, the koff is under 1e-07 s⁻¹ and the on-rate constant (kon) was determined as 642000 M⁻¹ s⁻¹.
fHbp CC3 (natural protein): in [1], the Kd was found to be 1.2 nM, the koff came out at 0.00241 s⁻¹ and the kon stood at 2.01e+06 M⁻¹ s⁻¹.
The like results for fHbp CC4 (natural protein) were, in that order, 6.92 nM, 0.00561 s⁻¹ and 811000 M⁻¹ s⁻¹.
For fHbp CC2 (natural protein), in that order: 0.425 nM, 0.000266 s⁻¹ and 625000 M⁻¹ s⁻¹.
For fHbp CC5 (natural protein), in that order: 6.49 nM, 0.00446 s⁻¹ and 687000 M⁻¹ s⁻¹.
In test [1], fHbp CC9 (natural protein) showed a Kd of 7.66 nM, a dissociation rate constant (koff) of 0.00118 s⁻¹ and a kon of 154000 M⁻¹ s⁻¹.

B1: mAb 1A12 (human) (antibody, V domains shown)
VH: EVQLVQSGAELKKPGESLKISCKASGYTFTNYWVVWVRQMPGEGLEWMGSIHPRDSDARYSLSFEGRVTFSVDKSTTTAYLQWSSLKVSDSAIYYCARLSQVSGWSPWVGPWGQGTLVTVSS
VL: DIVMTQSPSSLSASVGDRVTITCRASQSISVSLNWYQQKPGKAPKVLIYAASRLQSGIPSRFSGSGSGSHFTLTISSLQPEDFATYYCQETYSDLMYTFGQGTKVEIK
notes: source: Expi293, purified (MabSelect SuRe, SEC); copies: 2 + 2
For B1, the Kd in test [2] is under 0.001 nM; in test [3], 65.9 nM; in test [4], 20.4 nM.

B2: mouse mAb 12C1 (antibody, V domains shown)
VH: QVQLQESGPELVKPGASVKISCKASGYSFSDYNMSWVKQSNGKSLEWIGIIDPKYGTINYNQKFKGKATLTVDQASSTAYMQLNSLTSEDSAVYYCVRDYYGSSYFDYWGQGTTLTVSS
VL: DIVLTQSPSSIYASLGERVTLTCKASQDIHNYLNWFQQKPGKSPKTLIYRANRLVDGVPSRFSGGGSGQDYSLTISSLEFEDIGIYYCLQYDEFPPTFGGGTRLEIK
notes: also called mouse 12C1 mAb; source: Expi293, transient transfection, purified (MabSelect SuRe, SEC)
Molecule B2 came in with a Kd with fHbp m000019 [5] of 0.037 nM.

B3: mAb 12C1 (mouse) (antibody, V domains shown)
VH: B2 VH
VL: B2 VL
notes: as for B1
As for B3, the Kd in the test with fHbp mutant 0014, in the test with fHbp mutant 0012, with fHbp mutant 0017, with fHbp mutant 0018, with fHbp mutant 0015 and with fHbp mutant 0016 was under 0.001 nM throughout. The Kd in [2] was under 0.001 nM. The koff is under 1e-07 s⁻¹ in the test with fHbp mutant 0014; under 1e-07 s⁻¹ with fHbp mutant 0012; under 1e-07 s⁻¹ with fHbp mutant 0017; under 1e-07 s⁻¹ with fHbp mutant 0018; 2.2e-05 s⁻¹ with fHbp m000019 [6]; under 1e-07 s⁻¹ with fHbp mutant 0015. Further, the koff (in the test with fHbp mutant 0016; in [2]) was under 1e-07 s⁻¹ each time. The kon was 809000 ± 12500 M⁻¹ s⁻¹ with fHbp mutant 0014; 599000 ± 21400 M⁻¹ s⁻¹ with fHbp mutant 0012; 359000 ± 10900 M⁻¹ s⁻¹ with fHbp mutant 0017; 397000 ± 13200 M⁻¹ s⁻¹ with fHbp mutant 0018; 585000 ± 6100 M⁻¹ s⁻¹ with fHbp m000019 [6]; 386000 ± 44100 M⁻¹ s⁻¹ in the test with fHbp mutant 0015. For the same molecule, the kon turned out to be 101000 ± 20700 M⁻¹ s⁻¹ in the test with fHbp mutant 0016 and 796000 ± 15600 M⁻¹ s⁻¹ in test [2].

B4: mouse mAb JAR5 (antibody, V domains shown)
VH: QVQMQQPGAELVKPGASVKLSCKASGYTFISYWMHWVKQRPGRGLEWIGRIAPDTGIIYYNEKFKNKATLTVDTPSSTAYMQLNSLTSEDSAVYYCARYLKYDGSTYRFDYWGQGTTLTVSS
VL: DIVMTQAAPSVPVTPGESVSISCRSSKSLLHSNGNTYLFWFLQRPGQSPQLLIYRMSNLASGVPDRFSGSGSGTSFTLRISRVEAEDVGVYYCMQHLEYPYTFGGGTKLEIK
notes: also called mouse JAR5 mAb; source: Expi293, transient transfection, purified (MabSelect SuRe, SEC)
With B4, the Kd in the test with fHbp m000019 [5] is 0.254 nM.

B5: mAb JAR5 (mouse) (antibody, V domains shown)
VH: B4 VH
VL: B4 VL
notes: as for B1
On to B5, for which the Kd amounted to 0.211 nM in the test with fHbp mutant 0014; 0.418 nM with fHbp mutant 0012; 0.0297 nM with fHbp mutant 0017; 0.404 nM with fHbp mutant 0018; 0.209 nM with fHbp mutant 0015.

B6: chimeric antibody hJAR5 (antibody, V domains shown)
VH: B4 VH
VL: B4 VL
With B6, in the test with fHbp m002416, binding was characterised by a dissociation constant (Kd) of 0.631 nM. This counts as sub-nanomolar.
